B1: CD3 × CD33-BspAb73 (bispecific antibody)
chain 1: EVQLVESGGGLVKPGGSLRLSCAASGFTFSSYSMNWVRQAPGKCLEWVSSVNSRGSYIYYADSVKGRFTISRDNAKDSLYLQMNSLRADDTAVYYCARDRRELLLDYWGQGTLVTVSSGGGGSGGGGSGGGGSGGGGSSYELTQPPSVSVSPGQTARITCSGDALPKKYAYWYQQKSGQAPVLVIYEDSKRPSGIPERFSGSSSGTMATLTISGAQVEDEADYYCYSTDSSGNHSWVFGCGTKLTVLDKTHTCPPCPAPEFEGGPSVFLFPPKPKDTLMISRTPEVTCVVVDVSHEDPEVKFNWYVDGVEVHNAKTKPREEQYNSTYRVVSVLTVLHQDWLNGKEYKCKVSNKALPASIEKTISKAKGQPREPQVYTLPPCREEMTKNQVSLWCLVKGFYPSDIAVEWESNGQPENNYKTTPPVLDSDGSFFLYSKLTVDKSRWQQGNVFSCSVMHEALHNHYTQKSLSLSPGK
chain 2: EVQLVQSGAEVKKPGSSVKVSCKASGYTITDSNIHWVRQAPGQSLEWIGYIYPYNGGTDYNQKFKNRATLTVDNPTNTAYMELSSLRSEDTAFYYCVNGNPWLAYWGQGTLVTVSSASTKGPSVFPLAPSSKSTSGGTAALGCLVKDYFPEPVTVSWNSGALTSGVHTFPAVLQSSGLYSLSSVVTVPSSSLGTQTYICNVNHKPSNTKVDKRVEPKSCDKTHTCPPCPAPEFEGGPSVFLFPPKPKDTLMISRTPEVTCVVVDVSHEDPEVKFNWYVDGVEVHNAKTKPREEQYNSTYRVVSVLTVLHQDWLNGKEYKCKVSNKALPASIEKTISKAKGQPREPQVCTLPPSREEMTKNQVSLSCAVKGFYPSDIAVEWESNGQPENNYKTTPPVLDSDGSFFLVSKLTVDKSRWQQGNVFSCSVMHEALHNRFTQKSLSLSPGK
chain 3: DIQLTQSPSTLSASVGDRVTITCRASESLDNYGIRFLTWFQQKPGKAPKLLMYAASNQGSGVPSRFSGSGSGTEFTLTISSLQPDDFATYYCQQTKEVPWSFGQGTKVEVKRTVAAPSVFIFPPSDEQLKSGTASVVCLLNNFYPREAKVQWKVDNALQSGNSQESVTEQDSKDSTYSLSSTLTLSKADYEKHKVYACEVTHQGLSSPVTKSFNRGEC
B2: CD3 × CD33-BspAb86 (bispecific antibody)
chain 1: EVQLVESGGGLVKPGGSLRLSCAASGFTFSSYSMNWVRQAPGKCLEWVSSISRSGTYIYYADSVKGRFTISRDNAKNSLYLQMNSLRAEDTAVYYCARERWELLYFDYWGQGTLVTVSSGGGGSGGGGSGGGGSGGGGSQTVVTQEPSLTVSPGGTVTLTCASSTGAVTSGYYPNWFQQKPGQAPRALIYSTSNKHSWTPARFSGSLLGGKAALTLSGVQPEDEAEYYCLLYYGGAYVFGCGTKVTVLDKTHTCPPCPAPEFEGGPSVFLFPPKPKDTLMISRTPEVTCVVVDVSHEDPEVKFNWYVDGVEVHNAKTKPREEQYNSTYRVVSVLTVLHQDWLNGKEYKCKVSNKALPASIEKTISKAKGQPREPQVYTLPPCREEMTKNQVSLWCLVKGFYPSDIAVEWESNGQPENNYKTTPPVLDSDGSFFLYSKLTVDKSRWQQGNVFSCSVMHEALHNHYTQKSLSLSPGK
chain 2: B1 chain 2
chain 3: B1 chain 3
B3: CD3 × CD33-BspAb90 (bispecific antibody)
chain 1: not shown
chain 2: B1 chain 2
chain 3: B1 chain 3
B4: CD3 × CD33-BspAb94 (bispecific antibody)
chain 1: NFMLTQPHSVSESPGKTVTISCTRSSGSIASNYVQWYQQRPGSSPTTVIYEDNQRPSGVPDRFSGSIDSSSNSASLTISGLKTEDEADYYCQSYDSSNRVFGCGTKLTVLGGGGSGGGGSGGGGSGGGGSEVQLVESGGGLVKPGGSLRLSCAASGFTFSSYTMNWVRQAPGKCLEWVSSITTSSSYIYYADSVKGRFTISRDNAKNSLYLQMNSLRAEDTAVYYCARVTFDAFDIWGQGTMVTVSSDKTHTCPPCPAPEFEGGPSVFLFPPKPKDTLMISRTPEVTCVVVDVSHEDPEVKFNWYVDGVEVHNAKTKPREEQYNSTYRVVSVLTVLHQDWLNGKEYKCKVSNKALPASIEKTISKAKGQPREPQVYTLPPCREEMTKNQVSLWCLVKGFYPSDIAVEWESNGQPENNYKTTPPVLDSDGSFFLYSKLTVDKSRWQQGNVFSCSVMHEALHNHYTQKSLSLSPGK
chain 2: B1 chain 2
chain 3: B1 chain 3
B5: CD3 × CD33-BspAb72 (bispecific antibody)
chain 1: EVQLVESGGGLVQPGGSLRLSCAASGFTFSSYSMNWVRQAPGKCLEWVSYISSSSSTIYYADSVKGRFTISRDNAKNSLYLQMNSLRDEDTAVYYCARDGPVDYGMDVWGQGTTVTVSSGGGGSGGGGSGGGGSGGGGSSYELTQPPSVSVSPGQTARITCSGDALPKQYTYWYQQKPGQAPVLVIYKDSERPSGIPERFSGSSSGTTVTLTISGVQAEDEADYYCQSADSSGTYRVFGCGTKLTVLDKTHTCPPCPAPEFEGGPSVFLFPPKPKDTLMISRTPEVTCVVVDVSHEDPEVKFNWYVDGVEVHNAKTKPREEQYNSTYRVVSVLTVLHQDWLNGKEYKCKVSNKALPASIEKTISKAKGQPREPQVYTLPPCREEMTKNQVSLWCLVKGFYPSDIAVEWESNGQPENNYKTTPPVLDSDGSFFLYSKLTVDKSRWQQGNVFSCSVMHEALHNHYTQKSLSLSPGK
chain 2: B1 chain 2
chain 3: B1 chain 3
B6: CD3 × CD33-BspAb85 (bispecific antibody)
chain 1: EVQLVESGGGLVKPGGSLRLSCAASGFTFSSYSMNWVRQAPGKCLEWVSSISRSSGYIFYADSVKGRFTISRDNAKNSLYLQMNSLRAEDTAVYYCVRERVGAGFDYWGQGTLVTVSSGGGGSGGGGSGGGGSGGGGSNFMLTQPHSVSESPGKTVAISCTRSSGSIASNYVQWYQQRPGSSPTAVIYEDNQRPSGVPDRFSGSIDSSSNSAFLTISGLKTEDEADYYCQSYDSSNRVFGCGTKLTVLDKTHTCPPCPAPEFEGGPSVFLFPPKPKDTLMISRTPEVTCVVVDVSHEDPEVKFNWYVDGVEVHNAKTKPREEQYNSTYRVVSVLTVLHQDWLNGKEYKCKVSNKALPASIEKTISKAKGQPREPQVYTLPPCREEMTKNQVSLWCLVKGFYPSDIAVEWESNGQPENNYKTTPPVLDSDGSFFLYSKLTVDKSRWQQGNVFSCSVMHEALHNHYTQKSLSLSPGK
chain 2: B1 chain 2
chain 3: B1 chain 3

Target: T1, CD3 on human donor PBMC / Pan T effector cells (human, UniProt P07766 23-207; P09693 23-182; P04234 22-171; P20963 22-164)
T1 sequence (P07766 23-207, chain 1 of 4): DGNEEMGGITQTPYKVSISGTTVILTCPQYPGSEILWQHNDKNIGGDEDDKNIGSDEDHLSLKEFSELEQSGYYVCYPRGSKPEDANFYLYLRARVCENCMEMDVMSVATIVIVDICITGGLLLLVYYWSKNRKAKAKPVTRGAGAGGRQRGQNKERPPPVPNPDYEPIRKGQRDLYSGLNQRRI
T1 sequence (P09693 23-182, chain 2 of 4): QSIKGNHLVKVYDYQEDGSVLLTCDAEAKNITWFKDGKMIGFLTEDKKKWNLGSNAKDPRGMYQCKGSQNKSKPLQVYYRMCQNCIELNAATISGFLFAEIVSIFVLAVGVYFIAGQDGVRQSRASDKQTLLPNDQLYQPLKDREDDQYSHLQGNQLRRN
T1 sequence (P04234 22-171, chain 3 of 4): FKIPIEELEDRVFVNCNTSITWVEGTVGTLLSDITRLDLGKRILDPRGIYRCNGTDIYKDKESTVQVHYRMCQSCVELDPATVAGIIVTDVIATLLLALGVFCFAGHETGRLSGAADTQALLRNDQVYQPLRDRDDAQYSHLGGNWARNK
T1 sequence (P20963 22-164, chain 4 of 4): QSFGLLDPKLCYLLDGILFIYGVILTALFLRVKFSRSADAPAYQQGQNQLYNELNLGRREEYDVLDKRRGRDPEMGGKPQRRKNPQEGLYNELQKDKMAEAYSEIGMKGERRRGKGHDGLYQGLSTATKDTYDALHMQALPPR
Experiment: cell-based or functional assay

Cytokine Release Assay (IL2) Donor 0 EC50 | Cytokine Release Assay (IL2) Donor 0 gMFI max | Cytokine Release Assay (IL2) Donor 1 EC50 | Cytokine Release Assay (IL2) Donor 1 gMFI max | Cytokine Release Assay (IL2) Donor 2 EC50 | Cytokine Release Assay (IL2) Donor 2 gMFI max | Cytokine Release Assay (IL2) Donor 3 EC50 | Cytokine Release Assay (IL2) Donor 3 gMFI max | Binder
0.104 nM | 29000 gMFI | 0.373 nM | 15900 gMFI | 26.5 nM | 32500 gMFI | 0.24 nM | 42900 gMFI | B1
4.13 nM | 34400 gMFI | 4.24 nM | 18800 gMFI | 6.46 nM | 22100 gMFI | 3.52 nM | 42100 gMFI | B2
0.0887 nM | 69600 gMFI | 0.0832 nM | 24300 gMFI | 0.0612 nM | 30000 gMFI |  | 79300 gMFI | B3
 | 13600 gMFI | 3.58 nM | 14800 gMFI |  | 12500 gMFI | 1.47 nM | 13900 gMFI | B4
8.21 nM | 23000 gMFI | 4.28 nM | 17300 gMFI | 2.16 nM | 16400 gMFI | 8.36 nM | 26300 gMFI | B5
0.121 nM | 33000 gMFI | 0.442 nM | 23100 gMFI | 0.222 nM | 32600 gMFI | 0.0926 nM | 49700 gMFI | B6

Target: T1, CD3 on human donor PBMC / Pan T …
Experiment: cell-based or functional assay
Remark: another data set of the same source

Cytokine Release Assay (TNFα) Donor 0 EC50 | Cytokine Release Assay (TNFα) Donor 0 gMFI max | Cytokine Release Assay (TNFα) Donor 1 gMFI max | Cytokine Release Assay (TNFα) Donor 2 EC50 | Cytokine Release Assay (TNFα) Donor 2 gMFI max | Cytokine Release Assay (TNFα) Donor 3 EC50 | Cytokine Release Assay (TNFα) Donor 3 gMFI max | Cytokine Release Assay (TNFα) Donor 1 EC50 | Binder
0.759 nM | 28000 gMFI | 4400 gMFI | 1.01 nM | 14300 gMFI | 0.653 nM | 24200 gMFI |  | B1
2.15 nM | 34100 gMFI | 4900 gMFI | 2.19 nM | 10900 gMFI | 5.58 nM | 25200 gMFI |  | B2
0.136 nM | 61700 gMFI | 5330 gMFI | 0.0788 nM | 16000 gMFI | 0.0724 nM | 32800 gMFI |  | B3
 | 5150 gMFI | 4670 gMFI |  | 4420 gMFI |  | 4110 gMFI |  | B4
 | 23400 gMFI | 4410 gMFI | 16.9 nM | 8010 gMFI | 42.5 nM | 11200 gMFI |  | B5
0.114 nM | 44800 gMFI | 5490 gMFI | 0.0497 nM | 18400 gMFI | 0.0635 nM | 26600 gMFI | 0.647 nM | B6

— US20260167721A1 (ABLEXIS, published 2026)
